B1: Pistol ribozyme (parent)
chain: GGGUCGUUGUUCCAUAAUCGCGUGGAUAUGGCACGCAAGUUUCUACCGGGCACCGUAAAUGUCCGACUGGAGCCGUUCGGGCGGCUAUAAACAGACCUCAGGCCCGAAGCGUGGCGGCACCUGCCGCCGGUGGUAAAAAAGAUCGGAAGAGCACACGUCU

Variants of: B1
Test: aptazyme ON/OFF ratio, guanine; higher = stronger switching; co-transcriptional cleavage with and without guanine

Point of comparison: U8G C13U, “aptazyme ON/OFF ratio” value 1.27. Against it:
- U8G G9A U10G U11A C12U C13G — higher, 1.33
- U8G G9A U10G U11A C12U C13U — higher, 1.47
- U8G G9A U10A C12U — the same, 1.27
- U8G G9A U10A C12G — lower, 1.18
- U8G G9A U10A C12A — higher, 1.32
- U8G G9A U10G U11G C13G — lower, 1.15
- U8G G9A U10G U11G C13U — higher, 1.45
- U8G G9A U10G U11G C13A — higher, 1.56
- U8G G9A U10G C12U — higher, 1.39
- U8G G9A U10G C12A — higher, 1.44
- U8G G9A U10G C12G — higher, 1.34
- U8G G9C U10A C13U — lower, 1.09
- U8G G9C U10A C13A — lower, 1.07
- U8G G9C U10A C13G — lower, 1.06
- U8G G9A U10G C13A — lower, 0.997
- U8G G9A U10G C13U — higher, 1.58
- U8G G9A U10G C13G — higher, 1.34
- U8G G9C U10A — lower, 1.13
- U8G G9C U10A U11C C12A — lower, 1.12
- U8G G9C U10A U11C C12G — lower, 1.14
- U8G G9C U10A U11C C12U — lower, 1.04
- U8G C13A — higher, 1.3
- U8G C13G — lower, 1.2
- U8G G9A U10C C12U C13G — lower, 1.08
- U8G G9A U10C C12U C13A — lower, 1.14
- U8G G9A U10C C12U C13U — lower, 1.11
- U8G G9C U10A U11C C13G — lower, 1.04
- U8G G9C U10A U11C C13A — lower, 1.04
- U8G G9C U10A U11C C13U — lower, 1.03
- U8G G9A U10C U11C C12G C13U — lower, 1.05
- U8G G9A U10C U11C C12G C13A — lower, 1.09
- U8G G9A U10C U11C C12G C13G — lower, 1.1
- U8G G9A U11C C12G C13A — lower, 1.17
- U8G G9A U11C C12G C13U — higher, 1.4
- U8G G9A U11C C12G C13G — lower, 1.18
- U8G G9A U11C C12A — higher, 1.34
- U8G G9A U11C C12G — lower, 1.25
- U8G G9A U11C C12U — lower, 1.07
- U8G G9C U10A C12G C13A — lower, 1.16
- U8G G9C U10A C12G C13G — lower, 1.16
- U8G G9C U10A C12G C13U — lower, 1.17
- U8G G9A C12A C13A — lower, 1.25
- U8G G9A C12A C13G — the same, 1.27
- U8G G9A C12A C13U — higher, 1.39
- U8G G9A U10G U11C C12A C13U — lower, 1.18
- U8G G9A U10G U11C C12A C13A — lower, 1.18
- U8G G9A U10G U11C C12A C13G — lower, 1.16
- U8G G9A U11G C12U — higher, 1.34
- U8G G9A U11G C12A — lower, 1.08
- U8G G9A U11G C12G — lower, 1.23
- U8G G9A U10A C12U C13G — higher, 1.31
- U8G G9A U10A C12U C13A — lower, 1.15
- U8G G9A U10A C12U C13U — higher, 1.29
- U8G G9A U10C U11A C13U — lower, 1.08
- U8G G9A U10C U11A C13A — lower, 1.1
- U8G G9A U10C U11A C13G — lower, 1.06
- U8G G9A U10G U11C C12G C13U — higher, 1.4
- U8G G9A U10G U11C C12G C13A — the same, 1.27
- U8G G9A U10G U11C C12G C13G — lower, 1.25
- U8G G9A U10G U11C C12U C13A — lower, 1.06
- U8G G9A U10G U11C C12U C13G — lower, 1.2
- U8G G9A U10G U11C C12U C13U — lower, 1.06
- U8G G9C U10A U11C C12A C13G — lower, 1.07
- U8G G9C U10A U11C C12A C13A — lower, 1.06
- U8G G9C U10A U11C C12A C13U — lower, 1.07
- U8G G9C U10A U11A C12A — lower, 1.18
- U8G G9C U10A U11A C12G — lower, 1.16
- U8G G9C U10A U11A C12U — lower, 1.18
- U8G G9A U10A U11C — lower, 1.06
- U8G G9A U10A U11A — higher, 1.6
- U8G G9A U10A U11G — higher, 1.55
- U8G G9A C12G C13A — higher, 1.37
- U8G G9A C12G C13G — higher, 1.29
- U8G G9A C12G C13U — higher, 1.33
- U8G G9A U10C U11G C12G C13U — lower, 1.14
- U8G G9A U10C U11G C12G C13G — higher, 1.42
- U8G G9A U10C U11G C12G C13A — higher, 1.34
- U8G G9C U10A U11A C12U C13G — lower, 1.1
- U8G G9C U10A U11A C12U C13A — lower, 1.14
- U8G G9C U10A U11A C12U C13U — lower, 1.19
- U8G G9A U10C U11A C12U C13G — lower, 1.05
- U8G G9A U10C U11A C12U C13U — lower, 1.05
- U8G G9A U10C U11A C12U C13A — lower, 1.04

Source: the RNAGym collection of RNA variant scans (doi:10.1021/acssynbio.7b00057)
